Patent US20180079822A1 (UNITED STATES OF AMERICA AS REPRESENTED BY THE SECRETARY OF …, published 2018)

B1: M24E (VHH)
VHH: DVQLQASGGGLVQAGGSLRLSCAASGSTFSIKHHGWYRRAPGNQREWVAGISSENITNVAEAVKGRFTISRDNAKNTVYLQMNSLKVEDTAVYYCYAQDNDYRFLHRFWGQGTQVTVSL
notes: also called bt-M24E; anti-CD20 sdAb M24E
B2: M112D (VHH)
VHH: DVQLQASGGGLVQAEGSLRLSCAASGSTFGIKHHGWYRRAPGNQREWVAGISSENITNVAEAVKGRFTISRDNAKNTVYLQMNSLKVEDTAVYYCYAQDNNYRFLHRFWGQGTQVTVSL
notes: also called bt-M112D; anti-CD20 sdAb M112D
B3: M28C (VHH)
VHH: DVQLQASGGGLVQAGGSLRLSCAASGSTFSIKHHGWYRRAPGNQREWVAGINSENITNVAGAVKGRFTISRDNAKNTVYLQMNSLKVEDTAVYFCYAQDNDYRFLHRFWGQGTQVTVSL
notes: also called bt-M28C; anti-CD20 sdAb M28C

What was measured:
[1] = target: T1, CD20-Hoc fusion protein (human; T4 phage, UniProt P11836 142-187; P18056 1-376, limits assumed); test: SPR
T1 construct: also called Hoc-CD20; Hoc-CD
T1 sequence (P11836 142-187, tags or fused parts left off): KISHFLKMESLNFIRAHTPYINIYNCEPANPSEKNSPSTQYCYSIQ

[2] = target: T2, Hoc (T4 phage, UniProt P18056 1-376, limits assumed); test: SPR
T2 construct: Purified Hoc used as control for the fusion partner; also called outer capsid protein Hoc of T4 phage
T2 sequence (P18056 whole entry, the tested form may be a part): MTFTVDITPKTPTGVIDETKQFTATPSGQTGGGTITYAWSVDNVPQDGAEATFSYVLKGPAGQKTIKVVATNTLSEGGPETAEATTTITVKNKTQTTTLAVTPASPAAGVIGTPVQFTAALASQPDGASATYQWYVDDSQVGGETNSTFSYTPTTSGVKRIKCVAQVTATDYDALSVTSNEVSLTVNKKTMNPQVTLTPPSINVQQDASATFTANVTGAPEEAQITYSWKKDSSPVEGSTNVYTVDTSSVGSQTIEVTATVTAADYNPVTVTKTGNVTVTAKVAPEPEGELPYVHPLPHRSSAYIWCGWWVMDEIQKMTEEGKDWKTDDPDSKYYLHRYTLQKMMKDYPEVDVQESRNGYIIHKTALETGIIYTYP

[3] = target: T1, CD20-Hoc fusion protein; test: SPR; KD on Hoc divided by KD on Hoc-CD20
[4] = target: T1, CD20-Hoc fusion protein; test: SPR binding kinetics

Binder | Kd [1] | koff [1] | kon [1] | Kd [2] | koff [2] | kon [2] | Ratio Hoc KD/Hoc-CD20 KD [3] | differential binding to CD20-Hoc fusion against Hoc [4]
B1 | 5.7 nM | 0.0043 s⁻¹ | 750000 M⁻¹ s⁻¹ | 230 nM | 0.046 s⁻¹ | 200000 M⁻¹ s⁻¹ | 40 ratio | ~1000 fold
B2 | 26 nM | 0.007 s⁻¹ | 280000 M⁻¹ s⁻¹ | 2100 nM | 0.32 s⁻¹ | 150000 M⁻¹ s⁻¹ | 81 ratio | ~100 fold
B3 | 15 nM | 0.0045 s⁻¹ | 300000 M⁻¹ s⁻¹ | 5300 nM | 0.36 s⁻¹ | 68000 M⁻¹ s⁻¹ | 353 ratio | ~1000 fold
